The test addresses T1, β-catenin (mouse, UniProt Q02248 2-781).
T1 construct: whole, on cells; Detected by immunostaining; also called B-catenin
T1 sequence (looked up): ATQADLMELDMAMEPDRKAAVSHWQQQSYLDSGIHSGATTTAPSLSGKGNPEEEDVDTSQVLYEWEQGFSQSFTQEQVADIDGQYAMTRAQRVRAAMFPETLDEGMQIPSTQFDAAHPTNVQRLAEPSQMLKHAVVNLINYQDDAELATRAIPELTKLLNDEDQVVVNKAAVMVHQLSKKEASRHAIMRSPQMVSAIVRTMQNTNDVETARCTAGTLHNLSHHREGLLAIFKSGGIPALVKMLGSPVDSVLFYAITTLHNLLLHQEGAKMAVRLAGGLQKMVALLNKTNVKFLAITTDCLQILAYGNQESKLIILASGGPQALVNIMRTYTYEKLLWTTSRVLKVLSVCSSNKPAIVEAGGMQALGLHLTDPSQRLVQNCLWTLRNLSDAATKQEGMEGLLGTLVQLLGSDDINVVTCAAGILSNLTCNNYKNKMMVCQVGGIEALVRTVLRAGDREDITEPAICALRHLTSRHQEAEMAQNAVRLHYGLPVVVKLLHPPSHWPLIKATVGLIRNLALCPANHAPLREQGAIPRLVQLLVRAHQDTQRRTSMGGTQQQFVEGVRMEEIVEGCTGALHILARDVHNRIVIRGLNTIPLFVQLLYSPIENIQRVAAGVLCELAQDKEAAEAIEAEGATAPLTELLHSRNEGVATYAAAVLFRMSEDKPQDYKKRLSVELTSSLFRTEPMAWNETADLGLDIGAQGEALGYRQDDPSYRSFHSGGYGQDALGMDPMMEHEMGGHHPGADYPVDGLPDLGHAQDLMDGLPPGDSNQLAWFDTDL
Briefly: co-immunostaining of wild-type mouse intestine sections (FIG. 7G).

B1: N-cadherin (other, mouse, UniProt P15116 160-906, looked up)
chain: DWVIPPINLPENSRGPFPQELVRIRSDRDKNLSLRYSVTGPGADQPPTGIFIINPISGQLSVTKPLDRELIARFHLRAHAVDINGNQVENPIDIVINVIDMNDNRPEFLHQVWNGSVPEGSKPGTYVMTVTAIDADDPNALNGMLRYRILSQAPSTPSPNMFTINNETGDIITVAAGLDREKVQQYTLIIQATDMEGNPTYGLSNTATAVITVTDVNDNPPEFTAMTFYGEVPENRVDVIVANLTVTDKDQPHTPAWNAAYRISGGDPTGRFAILTDPNSNDGLVTVVKPIDFETNRMFVLTVAAENQVPLAKGIQHPPQSTATVSVTVIDVNENPYFAPNPKIIRQEEGLHAGTMLTTLTAQDPDRYMQQNIRYTKLSDPANWLKIDPVNGQITTIAVLDRESPNVKNNIYNATFLASDNGIPPMSGTGTLQIYLLDINDNAPQVLPQEAETCETPEPNSINITALDYDIDPNAGPFAFDLPLSPVTIKRNWTINRLNGDFAQLNLKIKFLEAGIYEVPIIITDSGNPPKSNISILRVKVCQCDSNGDCTDVDRIVGAGLGTGAIIAILLCIIILLILVLMFVVWMKRRDKERQAKQLLIDPEDDVRDNILKYDEEGGGEEDQDYDLSQLQQPDTVEPDAIKPVGIRRLDERPIHAEPQYPVRSAAPHPGDIGDFINEGLKAADNDPTAPPYDSLLVFDYEGSGSTAGSLSSLNSSSSGGDQDYDYLNDWGPRFKKLADMYGGGDD
notes: whole, on cells; Detected by immunostaining
Regarding B1, the binding result is listed as “binds”.

The values are drawn from patent publication US20050271638A1 (published 2005).
